From publication PMC10977726 (2024)

B1: mouse IgG Fc (domain or fragment)
chain: VPRDCGCKPCICTVPEVSSVFIFPPKPKDVLTITLTPKVTCVVVDISKDDPEVQFSWFVDDVEVHTAQTQPREEQFNSTFRSVSELPIMHQDWLNGKEFKCRVNSAAFPAPIEKTISKTKGRPKAPQVYTIPPPKEQMAKDKVSLTCMITDFFPEDITVEWQWNGQPAENYKNTQPIMNTNGSYFVYSKLNVQKSNWEAGNTFTCSVLHEGLHNHHTEKSLSHSPGK
modifications: biotin
B2: rat serum albumin (natural protein)
chain: EAHKSEIAHRFKDLGEQHFKGLVLIAFSQYLQKCPYEEHIKLVQEVTDFAKTCVADENAENCDKSIHTLFGDKLCAIPKLRDNYGELADCCAKQEPERNECFLQHKDDNPNLPPFQRPEAEAMCTSFQENPTSFLGHYLHEVARRHPYFYAPELLYYAEKYNEVLTQCCTESDKAACLTPKLDAVKEKALVAAVRQRMKCSSMQRFGERAFKAWAVARMSQRFPNAEFAEITKLATDVTKINKECCHGDLLECADDRAELAKYMCENQATISSKLQACCDKPVLQKSQCLAEIEHDNIPADLPSIAADFVEDKEVCKNYAEAKDVFLGTFLYEYSRRHPDYSVSLLLRLAKKYEATLEKCCAEGDPPACYGTVLAEFQPLVEEPKNLVKTNCELYEKLGEYGFQNAVLVRYTQKAPQVSTPTLVEAARNLGRVGTKCCTLPEAQRLPCVEDYLSAILNRLCVLHEKTPVSEKVTKCCSGSLVERRPCFSALTVDETYVPKEFKAETFTFHSDICTLPDKEKQIKKQTALAELVKHKPKATEDQLKTVMGDFAQFVDKCCKAADKDNCFATEGPNLVARSKEALA
modifications: biotin
B3: rabbit IgG Fc (domain or fragment)
chain: PSTCSKPTCPPPELLGGPSVFIFPPKPKDTLMISRTPEVTCVVVDVSQDDPEVQFTWYINNEQVRTARPPLREQQFNSTIRVVSTLPITHQDWLRGKEFKCKVHNKALPAPIEKTISKARGQPLEPKVYTMGPPREELSSRSVSLTCMINGFYPSDISVEWEKNGKAEDNYKTTPAVLDSDGSYFLYNKLSVPTSEWQRGDVFTCSVMHEALHNHYTQKSISRSPGK
modifications: biotin

Legend:
Assay in all cases: SPR
mouse IgG Fc = molecular target: B1
rabbit IgG Fc = molecular target: B3
protein A = protein A (UniProt P38507 37-477)
Ig-CON-5 (synthetic) = molecular target: Ig-CON-5 (synthetic)
rabbit serum albumin = molecular target: T1, rabbit serum albumin (rabbit, UniProt P49065 25-608, biotin)
T1 chain: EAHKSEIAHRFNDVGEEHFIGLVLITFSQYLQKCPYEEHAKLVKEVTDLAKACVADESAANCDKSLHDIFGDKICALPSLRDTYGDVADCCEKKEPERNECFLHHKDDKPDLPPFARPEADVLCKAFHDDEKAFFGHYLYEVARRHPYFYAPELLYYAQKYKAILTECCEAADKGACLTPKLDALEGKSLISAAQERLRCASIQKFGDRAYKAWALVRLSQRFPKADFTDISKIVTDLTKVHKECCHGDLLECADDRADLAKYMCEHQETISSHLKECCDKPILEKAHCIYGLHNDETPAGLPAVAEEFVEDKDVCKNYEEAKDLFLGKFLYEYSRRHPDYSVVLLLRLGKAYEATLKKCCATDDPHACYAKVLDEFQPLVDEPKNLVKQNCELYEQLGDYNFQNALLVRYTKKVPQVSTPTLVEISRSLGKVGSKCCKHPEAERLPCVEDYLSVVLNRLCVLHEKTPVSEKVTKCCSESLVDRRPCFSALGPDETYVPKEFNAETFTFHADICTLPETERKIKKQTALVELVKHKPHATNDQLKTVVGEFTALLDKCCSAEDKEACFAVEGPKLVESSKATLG

human serum albumin = human serum albumin (human, UniProt P02768 25-609, biotin)
mouse serum albumin = mouse serum albumin (mouse, UniProt P07724 25-608, biotin)
rat serum albumin = molecular target: B2
Hs-CHR-3 (synthetic) = molecular target: Hs-CHR-3 (synthetic)

Sequence of mouse serum albumin (P07724 25-608): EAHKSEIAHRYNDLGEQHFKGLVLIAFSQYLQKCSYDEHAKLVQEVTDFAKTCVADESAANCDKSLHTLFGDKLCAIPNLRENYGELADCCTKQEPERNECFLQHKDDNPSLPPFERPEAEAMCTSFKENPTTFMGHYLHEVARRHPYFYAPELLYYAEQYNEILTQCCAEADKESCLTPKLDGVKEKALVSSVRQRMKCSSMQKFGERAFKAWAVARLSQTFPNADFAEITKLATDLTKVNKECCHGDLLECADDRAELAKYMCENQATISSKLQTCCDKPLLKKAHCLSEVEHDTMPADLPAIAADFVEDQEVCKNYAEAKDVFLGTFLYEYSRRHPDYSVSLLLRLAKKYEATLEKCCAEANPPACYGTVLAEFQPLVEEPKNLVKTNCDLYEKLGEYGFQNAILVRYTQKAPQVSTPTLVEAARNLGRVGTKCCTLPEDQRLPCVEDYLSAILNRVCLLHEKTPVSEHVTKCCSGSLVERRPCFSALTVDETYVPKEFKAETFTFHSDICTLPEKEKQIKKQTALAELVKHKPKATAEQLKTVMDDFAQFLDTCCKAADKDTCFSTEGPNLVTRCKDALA

VGECVRGRCSKISCCSQFGYCGKGPKYCG [Ig-AMP-1 (synthetic)]
Kd (mouse IgG Fc): > 20 µM
Kd (rabbit IgG Fc): ~1410 nM

B1
Kd (protein A): 1.5 nM
Kd (Ig-CON-5 (synthetic)): ~1200 nM

VGECVRGRCSQISCCSQFGYCGKGPKYCG [Ig-AMP-3 (synthetic)]
Kd (rabbit IgG Fc): ~1850 nM

GCQAHYWYRVWFCKQDSDCLAGCVCGPNGFCG [Ig-EET-1 (synthetic)]
Kd (mouse IgG Fc): > 20 µM
Kd (rabbit IgG Fc): > 20000 nM

RLIEDICLPRWGCLWEDD [SA21]
Kd (rabbit serum albumin): 100 nM
Kd (human serum albumin): 650 nM
Kd (mouse serum albumin): 160 nM
Kd (rat serum albumin): 190 nM

B2
Kd (Hs-CHR-3 (synthetic)): 2000 nM

B3
Kd (protein A): 0.167 nM
Kd (Ig-CON-5 (synthetic)): > 30 nM
